# Assay results published in publication PMC4706430 (2016).
# B1: Boophilin (natural protein)
# chain: QRNGFCRLPADEGICKALIPRFYFNTETGKCTMFSYGGCGGNENNFETIEDCQKACGAPERVSDFEGADFKTGCEPAADSGSCAGQLERWFYNVRSGECETFVYGGCGGNDNNYESEEECELVCKNM
# modifications: N-terminus blocked (Edman degradation)
# Molecular target: kallikrein (human, UniProt P03952 20-638)
# Sequence (P03952 20-638): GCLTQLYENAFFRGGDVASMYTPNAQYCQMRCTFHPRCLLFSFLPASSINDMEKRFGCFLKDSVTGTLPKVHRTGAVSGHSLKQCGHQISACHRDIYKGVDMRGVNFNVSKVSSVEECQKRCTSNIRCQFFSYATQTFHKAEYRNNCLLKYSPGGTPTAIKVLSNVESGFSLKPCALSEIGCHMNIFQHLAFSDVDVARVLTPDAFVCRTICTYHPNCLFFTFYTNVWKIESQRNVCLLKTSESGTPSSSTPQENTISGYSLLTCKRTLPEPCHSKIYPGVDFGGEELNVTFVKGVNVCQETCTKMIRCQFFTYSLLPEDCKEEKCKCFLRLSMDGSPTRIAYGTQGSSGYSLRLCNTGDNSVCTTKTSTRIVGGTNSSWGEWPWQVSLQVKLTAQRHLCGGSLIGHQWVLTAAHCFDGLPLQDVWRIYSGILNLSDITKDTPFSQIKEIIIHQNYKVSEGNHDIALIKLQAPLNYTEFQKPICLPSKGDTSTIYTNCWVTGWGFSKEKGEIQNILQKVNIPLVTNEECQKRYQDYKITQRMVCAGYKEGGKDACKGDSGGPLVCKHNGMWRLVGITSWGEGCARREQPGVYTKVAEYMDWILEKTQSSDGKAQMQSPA
binder,measurement,value
B1,Ki,919 nM
